The test concerns the target β-clamp of the Escherichia coli replisome (E. coli) (UniProt P0A988).
Sequence of UniProt P0A988 (P0A988 whole entry): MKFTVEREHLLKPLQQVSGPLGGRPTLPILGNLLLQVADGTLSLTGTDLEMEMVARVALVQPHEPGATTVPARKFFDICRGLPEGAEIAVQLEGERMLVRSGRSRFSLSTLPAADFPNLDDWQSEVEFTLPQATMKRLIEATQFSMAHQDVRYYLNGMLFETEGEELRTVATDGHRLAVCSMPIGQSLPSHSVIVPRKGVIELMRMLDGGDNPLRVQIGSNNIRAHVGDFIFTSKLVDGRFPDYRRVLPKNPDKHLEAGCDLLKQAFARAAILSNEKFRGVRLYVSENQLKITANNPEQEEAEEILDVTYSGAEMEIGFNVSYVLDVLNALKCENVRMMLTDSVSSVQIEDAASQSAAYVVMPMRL

In the case of “DNA polymerase I (from UniProt P00582 1-928) (enzyme)”, the rate of cleavage of a 10 nucleotide 5' flap by Pol I, with template-loaded β-clamp against without (denaturing gel) stood at 2.5 fold.

The values are drawn from publication PMC6010275.
